Results: publication PMC3368277

Molecular target: His-tagged recombinant C0–C1 domains of cardiac myosin binding protein-C (mouse)
Assay: pull-down

Sequence of His-tagged recombinant C0–C1 domains of cardiac myosin binding protein-C (mouse) (O70468 whole entry, the tested form may be a part): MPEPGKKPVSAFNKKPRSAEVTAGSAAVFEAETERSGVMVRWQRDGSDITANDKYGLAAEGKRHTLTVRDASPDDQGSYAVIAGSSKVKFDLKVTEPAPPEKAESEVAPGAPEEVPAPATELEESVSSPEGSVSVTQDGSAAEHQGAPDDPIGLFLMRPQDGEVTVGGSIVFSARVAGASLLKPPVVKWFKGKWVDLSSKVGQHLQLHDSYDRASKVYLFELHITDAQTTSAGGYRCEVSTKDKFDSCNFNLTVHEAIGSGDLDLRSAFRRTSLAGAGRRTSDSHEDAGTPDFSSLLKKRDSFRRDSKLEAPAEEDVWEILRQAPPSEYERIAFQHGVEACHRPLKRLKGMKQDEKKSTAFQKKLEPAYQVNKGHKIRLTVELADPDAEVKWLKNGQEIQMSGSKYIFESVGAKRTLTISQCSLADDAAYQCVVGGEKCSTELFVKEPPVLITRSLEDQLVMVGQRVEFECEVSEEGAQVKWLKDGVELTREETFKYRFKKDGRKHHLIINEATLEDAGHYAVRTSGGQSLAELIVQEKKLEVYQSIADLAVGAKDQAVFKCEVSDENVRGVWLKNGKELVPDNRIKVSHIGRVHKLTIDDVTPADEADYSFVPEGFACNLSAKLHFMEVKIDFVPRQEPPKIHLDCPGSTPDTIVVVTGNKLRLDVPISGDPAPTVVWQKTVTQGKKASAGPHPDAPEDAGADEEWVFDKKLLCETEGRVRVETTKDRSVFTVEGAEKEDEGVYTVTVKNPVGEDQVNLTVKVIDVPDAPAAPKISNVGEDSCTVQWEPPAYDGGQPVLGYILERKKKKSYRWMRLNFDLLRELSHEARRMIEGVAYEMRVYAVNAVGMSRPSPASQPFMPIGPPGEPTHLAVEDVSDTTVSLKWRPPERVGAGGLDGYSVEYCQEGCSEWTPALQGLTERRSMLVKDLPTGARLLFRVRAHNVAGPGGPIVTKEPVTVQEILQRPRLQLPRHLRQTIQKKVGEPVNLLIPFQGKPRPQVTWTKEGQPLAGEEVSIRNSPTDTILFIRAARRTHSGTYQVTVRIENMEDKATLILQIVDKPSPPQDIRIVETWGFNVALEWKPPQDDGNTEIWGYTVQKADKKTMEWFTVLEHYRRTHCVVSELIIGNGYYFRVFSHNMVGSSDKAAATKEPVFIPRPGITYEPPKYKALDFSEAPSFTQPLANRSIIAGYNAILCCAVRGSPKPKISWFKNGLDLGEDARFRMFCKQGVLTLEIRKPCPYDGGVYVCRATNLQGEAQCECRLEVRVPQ

reduction of binding against C0–C2 (quantified blot): 50%
Substance: sarcomeric actin (from UniProt P68033 1-377) (natural protein)
